For one substance, Kd and dH results are on record in publication PMC8445900.

Holding throughout (assay): ITC
The target of assay [1] is SARS-CoV-2 spike protein receptor-binding domain K417N (SARS-CoV-2) (UniProt P0DTC2).
Assay [2] has as its target SARS-CoV-2 spike protein receptor-binding domain S477N (SARS-CoV-2) (UniProt P0DTC2).
Assay [3] addresses SARS-CoV-2 spike protein receptor-binding domain S494P (SARS-CoV-2) (UniProt P0DTC2).
Assay [4] has as its target SARS-CoV-2 spike protein receptor-binding domain T478I (SARS-CoV-2) (UniProt P0DTC2).
For assay [5], the target named is SARS-CoV-2 spike protein receptor-binding domain Y453F (SARS-CoV-2) (UniProt P0DTC2).

For orientation: Kd means a measure of binding affinity in units of concentration. As to “CC12.1 single-chain fragment variable (scFv)”, the equilibrium dissociation constant (Kd) in assay [1] worked out at 119 nM; in assay [2], 25.6 nM; in assay [3], 23 nM; in assay [4], 5.8 nM; in assay [5] it was 827 nM. The dH in assay [1] was -1.8 kcal/mol; in assay [2], -5.7 kcal/mol; in assay [3] it was -6.4 kcal/mol; in assay [4] it was -5.6 kcal/mol; in assay [5] it was -2.2 kcal/mol.
